Results: patent publication US20250011823A1, “Method for preparing ultra-low molecular weight Dendrobium oligosaccharides by enzymatic hydrolysis and its application” (Zhejiang A & F University, priority 2022, published 2025)

B1: THGH: T. halotolerans-derived glycosidase expressed in E. coli from the non-optimized gene SEQ ID NO.1 (protein)
chain: MRKRLTVAAATILALLASVFVFAQPANAATGFYVDNGRLYEAGGQEFVIRGVSHPHAWYAQETDSFAGIKSHGANTVRVVLSNGVRWTKNDAADVANVISLCKQNRLICMLEVHDTTGYGEQSGASTLDQAVDYWIEIQSALEGQEDYVLINIGNEPYGNDSATVADWASDTSAAIQRMRDAGFDHTLVVDAPNWGQDWSHTMRDNAGSVYTSDPTGNTVFSIHMYGVYEQGSTVTSYLEHFVNAGLPIMIGEFGHDHSDGNPDEDTIMAEAERLGLGYIGWSWSGNGGGVEYLDMVNNFDADSLTSWGQRIFYGANGISSTAEEATVYGGGAPTDPPTDPPAEGDCSADYTTVGSWGGGFQGEVTVTAGDSAISNWTVSWTFPGGQSVSHGWNASFGGGSPVTASNAPYNGQLGAGQSTTFGFIGSGSAPGSLTLTCTTD
modifications: Thermobifida halotolerans
B2: ThDPS: T. halotolerans-derived glycosidase (SEQ ID NO.3) expressed in E. coli from codon-optimized gene SEQ ID NO.2, with 6× His-tag (protein)
chain: B1 chain
modifications: 6xHis tag; Thermobifida halotolerans

Experiment: ThDPS glycosidase activity determination (DNS method), hydrolysis of Dendrobium polysaccharides
Type: biochemical
Details: for enzymatic activity of expression product (hydrolysis of Dendrobium polysaccharides): crude supernatant of recombinant E. coli BL21 (DE3)
Experimental: Enzymatic activity definition: the amount of enzyme that can convert 1micromole of substrate per 1 minute at 37° C. is defined as one unit of enzymatic activity (U).
Enzymatic activity determination: ThDPS glycosidases can decompose Dendrobium polysaccharides into mannan oligosaccharides. The mannan oligosaccharide has reducibility and can undergo a certain chemical reaction with a DNS reagent under alkaline conditions to generate 3-amin-5-nitrosalicylic acid that is brownish-red under boiling conditions. The amount of reducing sugar generated can be measured with a spectrophotometer. The gradation of the color of the acid is related to the content of the reducing sugar.
Specific steps for enzymatic activity determination are as follows: a total reaction system is 2 mL, containing 1 mL of a Dendrobium polysaccharide solution with a concentration of 4 g/L, 200 μL of a phosphate buffer with a concentration of 200 mM, and 10 μL of an enzyme solution. 10 μL of distilled water is added to a control group, and water is replenished to a total volume of 2 mL for all reaction solutions. A mixed reaction solution is incubated at 37° C. for 30 min. After being taken out, the incubated mixed reaction solution is placed in a boiling water bath for 1 min to inactivate the enzymes. 2 mL of a DNS solution is added into each tube, and the tube is placed in the boiling water bath for 3 min, and then is rapidly cooled, and 1 mL of distilled water is added […]. The absorbance is measured at the wavelength of 540 nm to determine the enzymatic activity.
The recombinant bacteria constructed in step 1 were inoculated into a test tube containing 5 mL of LB medium (containing 100 ug/mL ampicillin), and underwent shake-flask culture at 37° C. and 200 r/min for 16 h. As a seed solution, the cultured bacterial solution was transferred into 100 mL of LB liquid medium (containing 100 ug/mL ampicillin) with an inoculum size of 1%, and underwent shake-flask culture at 37° C. and 200 rpm until OD600 was 0.6. 0.1 mM of IPTG was added to induce expression, and shaking culture was carried out for 24 h at 37° C. and 200 rpm. The obtained fermentation broth was centrifuged at 8000×g and 4° C. for 10 min, the supernatant was removed, and bacterial cells were collected. The bacterial cells were resuspended with 8 mL of 50 mM PBS of pH=7.0. After ultrasonic crushing, centrifugation was carried out for 10 min at 4° C. and 12000×g, precipitates were removed, the supernatant was collected for the hydrolysis reaction of Dendrobium polysaccharides, and hydrolysis products were detected by using a DNS method.
By taking Dendrobium polysaccharides as a substrate, the enzymatic property of ThDPS was characterized. • 1. 0.2 g, 0.4 g, 0.8 g, 1.2 g, 1.6 g, 2.0 g, 2.4 g, and 3 g of Dendrobium polysaccharides were (Mw>100000 Da) weighed and dissolved in 1 L of distilled water to prepare Dendrobium polysaccharide solutions, and then 20 μL of an enzyme solution was added and reacted at 37° C. for 30 min. The enzyme solution was an enzyme solution of ThDPS prepared in Example 2 diluted with deionized water to a concentration of 100 μg/mL. […] Optimum temperature determination: 10 g/L Dendrobium polysaccharides were formulated as a reaction substrate. To a reaction system was added 0.4 mL of Dendrobium polysaccharides with a final concentration of 2 g/L, 200 μL of a 500 mM Tris-HCl buffer, and 20 μl of an enzyme solution (providing 10 U of catalytic activity), and 20 μl of distilled water was added to a control group. The water was replenished to a total volume of 2 mL for all reaction solutions. After fair mixing, the mixtures were placed in water baths at 20° C., 30° C., 40° C., 50° C., […], 70° C., 80° C., and […] and incubated for 30 min. The enzyme solution was an enzyme solution of ThDPS prepared in Example 2 diluted with deionized water to a concentration of 100 μg/mL. […]

Molecule	enzymatic activity of expression product (hydrolysis of Dendrobium polysaccharides) (DNS method) [U/OD bacterial cells]	hydrolysis activity on the Dendrobium polysaccharides (in words) (expression products of recombinant E. coli, DNS method, FIG. 1)	pH of maximum activity (50 mM phosphate buffer, 37° C., 30 min)	optimal reaction temperature (2 g/L Dendrobium polysaccharides, Tris-HCl buffer, 30 min, 20-90° C.) [°C]	substrate inhibition (in words) (Dendrobium polysaccharide 0.2 g/L to 3 g/L)	increase of expression enzymatic activity level versus THGH without codon optimization (codon-optimized sequence, E. coli BL21 (DE3)) [times]	relative activity (percentage of maximum activity) (range of pH 6.0 to 10.0)	specific enzymatic activity (substrate concentration 2.4 g/L, 37° C., 30 min) [U/mg]	relative activity (percentage of maximum activity) (temperature between 40° C. and 60° C.) [%]
B1	68	significant hydrolysis activity							
B2	187		7.0	60	no significant substrate inhibition	2.75	more than 90%	5100	≥ 85
